Results taken from patent publication US20120207760A1.
Where “and” joins values, the source holds several entries; their conditions need not be identical. Equal entries are not always repeated.

Tests used:
[1] = molecular target: hemagglutinin (HA) on live influenza A virus A/California/4/09 H1N1 (Influenza A virus A/California/04/2009 (H1N1)); experiment: cell-based or functional assay
[2] = molecular target: hemagglutinin (HA) on live influenza A virus A/Solomon Islands/3/06 H1N1 (Influenza A virus A/Solomon Islands/3/2006 (H1N1)); experiment: cell-based or functional assay
[3] = molecular target: hemagglutinin (HA) on live influenza A virus A/Wisconsin/67/05 H3N2 (Influenza A virus A/Wisconsin/67/2005 (H3N2)); experiment: cell-based or functional assay
[4] = molecular target: recombinant homotrimeric HA, A/Anhui/1/05 H5N1 (Influenza A virus A/Anhui/1/05 (H5N1)); experiment: trimeric HA microarray, transfection set 1
[5] = molecular target: recombinant homotrimeric HA, A/California/4/09 H1N1 (Influenza A virus A/California/4/09 (H1N1)); experiment: trimeric HA microarray, transfection set 1
[6] = molecular target: recombinant homotrimeric HA, A/Egypt/3300-NAMRU3/08 H5N1 (Influenza A virus A/Egypt/3300-NAMRU3/08 (H5N1)); experiment: trimeric HA microarray, transfection set 1
[7] = molecular target: recombinant homotrimeric HA, A/Hong Kong/1073/99 H9N2 (Influenza A virus A/Hong Kong/1073/99 (H9N2)); experiment: trimeric HA microarray, transfection set 1
[8] = molecular target: recombinant homotrimeric HA, A/Hong Kong/2108/03 H9N2 (Influenza A virus A/Hong Kong/2108/03 (H9N2)); experiment: trimeric HA microarray, transfection set 1
[9] = molecular target: recombinant homotrimeric HA, A/Indonesia/5/05 H5N1 (Influenza A virus A/Indonesia/5/05 (H5N1)); experiment: trimeric HA microarray, transfection set 1
[10] = molecular target: recombinant homotrimeric HA, A/Japan/305/57 H2N2 (Influenza A virus A/Japan/305/57 (H2N2)); experiment: trimeric HA microarray, transfection set 1
[11] = molecular target: recombinant homotrimeric HA, A/Netherlands/219/03 H7N7 (Influenza A virus A/Netherlands/219/03 (H7N7)); experiment: trimeric HA microarray, transfection set 1
[12] = molecular target: recombinant homotrimeric HA, A/Solomon Islands/3/06 H1N1 (Influenza A virus A/Solomon Islands/3/06 (H1N1)); experiment: trimeric HA microarray, transfection set 1
[13] = molecular target: recombinant homotrimeric HA, A/South Carolina/1/18 H1N1 (Influenza A virus A/South Carolina/1/18 (H1N1)); experiment: trimeric HA microarray, transfection set 1
[14] = molecular target: recombinant homotrimeric HA, A/Vietnam/1203/04 H5N1 (Influenza A virus A/Vietnam/1203/04 (H5N1)); experiment: trimeric HA microarray, transfection set 1
[15] = molecular target: recombinant homotrimeric HA, A/Wisconsin/67/05 H3N2 (Influenza A virus A/Wisconsin/67/05 (H3N2)); experiment: trimeric HA microarray, transfection set 1
[16] = molecular target: recombinant homotrimeric HA, A/chicken/Vietnam/NCVD-016/08 H5N1 (Influenza A virus A/chicken/Vietnam/NCVD-016/08 (H5N1)); experiment: trimeric HA microarray, transfection set 1
[17] = molecular target: recombinant homotrimeric HA, A/common magpie/Hong Kong/5052/07 H5N1 (Influenza A virus A/common magpie/Hong Kong/5052/07 (H5N1)); experiment: trimeric HA microarray, transfection set 1
[18] = molecular target: recombinant homotrimeric HA, A/duck/Yangzhou/02/05 H8N4 (Influenza A virus A/duck/Yangzhou/02/2005 (H8N4)); experiment: trimeric HA microarray, transfection set 1
[19] = molecular target: recombinant homotrimeric HA, A/northern shoveler/California/HKWF115/07 (Influenza A virus A/northern shoveler/California/HKWF115/2007 (H6N1)); experiment: trimeric HA microarray, transfection set 1
[20] = molecular target: recombinant homotrimeric HA, A/swine/Ontario/01911-2/99 H4N6 (Influenza A virus A/swine/Ontario/01911-2/99 (H4N6)); experiment: trimeric HA microarray, transfection set 1
[21] = molecular target: recombinant homotrimeric HA, A/Anhui/1/05 H5N1 (Influenza A virus A/Anhui/1/05 (H5N1)); experiment: trimeric HA microarray, transfection set 2
[22] = molecular target: recombinant homotrimeric HA, A/northern shoveler/California/HKWF115/07 (Influenza A virus A/northern shoveler/California/HKWF115/2007 (H6N1)); experiment: trimeric HA microarray, transfection set 2
[23] = molecular target: recombinant homotrimeric HA, A/swine/Ontario/01911-2/99 H4N6 (Influenza A virus A/swine/Ontario/01911-2/99 (H4N6)); experiment: trimeric HA microarray, transfection set 2
[24] = molecular target: recombinant homotrimeric HA, A/California/4/09 H1N1 (Influenza A virus A/California/4/09 (H1N1)); experiment: trimeric HA microarray, transfection set 5
[25] = molecular target: recombinant homotrimeric HA, A/Indonesia/5/05 H5N1 (Influenza A virus A/Indonesia/5/05 (H5N1)); experiment: trimeric HA microarray, transfection set 5
[26] = molecular target: recombinant homotrimeric HA, A/Japan/305/57 H2N2 (Influenza A virus A/Japan/305/57 (H2N2)); experiment: trimeric HA microarray, transfection set 5
[27] = molecular target: recombinant homotrimeric HA, A/Solomon Islands/3/06 H1N1 (Influenza A virus A/Solomon Islands/3/06 (H1N1)); experiment: trimeric HA microarray, transfection set 5
[28] = molecular target: recombinant homotrimeric HA, A/South Carolina/1/18 H1N1 (Influenza A virus A/South Carolina/1/18 (H1N1)); experiment: trimeric HA microarray, transfection set 5
[29] = molecular target: recombinant homotrimeric HA, A/Vietnam/1203/04 H5N1 (Influenza A virus A/Vietnam/1203/04 (H5N1)); experiment: trimeric HA microarray, transfection set 5
[30] = molecular target: recombinant homotrimeric HA, A/Wisconsin/67/05 H3N2 (Influenza A virus A/Wisconsin/67/05 (H3N2)); experiment: trimeric HA microarray, transfection set 5
[31] = molecular target: recombinant homotrimeric HA, A/swine/Ontario/01911-2/99 H4N6 (Influenza A virus A/swine/Ontario/01911-2/99 (H4N6)); experiment: trimeric HA microarray, transfection set 5
[32] = molecular target: hemagglutinin (HA) of influenza A/Solomon Islands/3/06 H1N1 (Influenza A virus A/Solomon Islands/3/2006 (H1N1)); experiment: ELISA, inactivated whole virions coated; transfection supernatant set 2
[33] = molecular target: hemagglutinin (HA) of influenza A/Wisconsin/67/05 H3N2 (Influenza A virus A/Wisconsin/67/2005 (H3N2)); experiment: as above

TCN-202 (2N9) (antibody)
% Neutralization [1]: 0%
% Neutralization [2]: 0% and 7%
% Neutralization [3]: 17.8% and 0%
Trimeric HA Binding RLU [4]: 20 RLU
Trimeric HA Binding RLU [5]: 20 RLU
Trimeric HA Binding RLU [6]: 76 RLU
Trimeric HA Binding RLU [7]: 21 RLU
Trimeric HA Binding RLU [8]: 24 RLU
Trimeric HA Binding RLU [9]: 57 RLU
Trimeric HA Binding RLU [10]: 27 RLU
Trimeric HA Binding RLU [11]: 55 RLU
Trimeric HA Binding RLU [12]: 67 RLU
Trimeric HA Binding RLU [13]: 32 RLU
Trimeric HA Binding RLU [14]: 37 RLU
Trimeric HA Binding RLU [15]: 27 RLU
Trimeric HA Binding RLU [16]: 14 RLU
Trimeric HA Binding RLU [17]: 21 RLU
Trimeric HA Binding RLU [18]: 26 RLU
Trimeric HA Binding RLU [19]: 13 RLU
Trimeric HA Binding RLU [20]: 29 RLU
Trimeric HA Binding RLU [21]: 9 RLU
Trimeric HA Binding RLU [22]: 30 RLU
Trimeric HA Binding RLU [23]: 15 RLU
Trimeric HA Binding RLU [24]: 733 RLU
Trimeric HA Binding RLU [25]: 1970 RLU
Trimeric HA Binding RLU [26]: 1880 RLU
Trimeric HA Binding RLU [27]: 525 RLU
Trimeric HA Binding RLU [28]: 5330 RLU
Trimeric HA Binding RLU [29]: 30000 RLU
Trimeric HA Binding RLU [30]: 581 RLU
Trimeric HA Binding RLU [31]: 2690 RLU
OD450 [32]: 0.08 OD450
OD450 [33]: 0.07 OD450
